Experiment: yeast display, Sf9 membrane polyspecificity reagent, FACS + sequencing; frameworks hold sequencing errors
In short: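 Galactose induction of a Saccharomyces cerevisiae BJ5465 synthetic nanobody display library ran 36–48 hours. The cells were then stained for 1 hour at 4 °C with 10% biotinylated, detergent-solubilized Sf9 membrane reagent, pulled down on streptavidin microbeads and FACS-sorted into low and high (top ~1%) gates on expression and reagent-binding fluorescence. Labels for polyreactivity follow the gate of origin.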

Sequence	polyreactivity (PSR sort gate)
QDQLVESAGGLVQAGGSLRLSCAASGSISYNNVMGWYRQAPGKERELVARIRSGGSTYYADSVKGRFTISRDNAKNTVYLQMNSLKPEDTAVYYCAARTKRQAGSYGYWGQGTQVTVSS	high polyreactivity
QDQLVESAGGLVQAGGSLRLTCAASGFIFADNAMGWYRQAPGKERELVAGITSGGITYYADSVKGRFTISRDNAKNTVYLQMNCLKPEDTAVYYCNTTSYPEFDYWGHGTQVTVSS	low polyreactivity
QDQLVESCGALVQAGGSLRLSCAASGSTFNFYAMGWYRQAPGKERELVAAITWRGGSTYYADSVKGRFTISRDFAKNTVYLQMNSLKPEDSAVYYCAAARGKDGYWGQGTQVNVSS	high polyreactivity
QDQLVESGGELVQAGGSLRLSCASSGRTFSANGMGWYRQAPAKERELVAAITRSGGITYYADSVKGRFTISRVNAKNTVYLQMNSLKPEDTAVYYCAASVYSLSRRSWMDYWGQGTQVTVSS	low polyreactivity
QDQLVESGGGFVQEGGSLRLSCDPSGRIFYGYVMGRYRQAHGKERELVAAISRRGGSTYYADSVKGRFTISRDNAKNTVYLQMNSMKPVVTAVDYCDAVLSFALVQYYGANRDDYWGQGTQVSVSS	high polyreactivity
QDQLVESGGGIVQEGGILRLSCAASGRIFVGYAMGWYRQAPGKERELVAAIRRYGTGTYYADSVKGRFTISRDNAKYTVYLKLNSLKTEDTAVYYCDAPELALYFPYDYWGQGTQVTVSS	low polyreactivity
QDQLVESGGGLDQAGGSLRLSCAASGRIFARYAMGWYRLAPGKERELVAALSRGGSTKYADSVKGRFTISRDNAKNTVYLQLHSLQQEDTAVYYCARQLWGSQYGAYYAGDYWGQVTQVTVSS	low polyreactivity
QDQLVESGGGLDQAGGSLRLSCAASGSTFQLYAMGWYRQAPGKERELVAAISGIGDSTYYADSVKGRFTISRDNAKNTVYLQMNSLKPEDTAVYYCDREFSDGLSGKFDYWGQGTQVTVSS	low polyreactivity
QDQLVESGGGLDQAGGSLRLSCAASGSTFSPYAMGWYRQAPGKERELVAGITSSGGDSYYADSVKGRFTISRDNAKNTVYLQMKSLKPEDTAVYYCAADWWVLGQLCFDYWGQGTQVNVSS	low polyreactivity
QDQLVESGGGLFQAGGSLRLSCAASGGIFGFYAMGWSRKAPGKERELVAAISWGGGSTYYADSVKGRFTISRDNAKNTVYLQMNSLKPEDTAFYYCAADPALTIEYGYWGQVTQVTVSS	low polyreactivity
QDQLVESGGGLFQAGGSLRLSCGASGFIFRWNAMGWSRQAPGKEREMVAAITRGGSTYYADSVKGRFSISRDNAKNTVYLQMNSLKPEDTAVYFCAAGYVYRGASGGYWGQGTQVTVSS	high polyreactivity
QDQLVESGGGLLQAGGSLRLSCAASGRTFNSYAMGWYRQAPGKERVLVAAISSSGGSTYYADSVKGRFTISRDNAKNTVYLEMNSLKPEDTAVYYCAAGLGSTSALLYGYWGQGTLVTVSS	high polyreactivity
QDQLVESGGGLVHAGGSLLLSCAACRRLFSQYVMGWYRQAPGKERELVAAISSGGGRTYYADSVKGRFTISRDYAKNTVYLQLNSLKPEDTAVYYCATLRPSAYPQYDSWGQGTQVTVSS	high polyreactivity
QDQLVESGGGLVHAGGSLRLSCAASGNNFSSYVMGWYRQATGKERELVAAISSRGGSTYYADSVKGRFTISRDNSKNTVYLQMNCLKPEDTAVYYCAARYLSCYDWGQGTQVSVSS	high polyreactivity
QDQLVESGGGLVQAGASLRLSCAASGSIICLYAMGWYRQAPGKERELVARITRSGGRTYYADSVKGRFTISRDNAKNTVYLQTNSLKPEDTAVYYCNAYGPNIYSSRYDYWGQGTQVSVSS	low polyreactivity
QDQLVESGGGLVQAGGRLRLSCAASGFTFHKYAMGWSRPAPGKDRELVAAITSSGGSTYYADSVKGRFTISRDYAKNTVYLQMTSLKPEDTAVYYCNARGGGRKSYDYWGQGTQVTVSS	high polyreactivity
QDQLVESGGGLVQAGGRLRLSCAASGLIFENYAMGWYRQSPGKERDLVAAITTSGGSTYYADSVKGRFTISRDNAKNTVYLQMNSLKPEDTAVYDCAAVGVRSRYYGYDYWGQGTLVTVSS	high polyreactivity
QDQLVESGGGLVQAGGRLRLSCAASGRTFYWNAMGWYRQAPGKERELVAAINGGGSTYYADSVKGRFTISRDNAMNTVYLQINSLKQEDSAVYYCNAESYEFHRAWGDYDYWGHGTQVTVSS	low polyreactivity
QDQLVESGGGLVQAGGRLRLSCAASGSIFCGNAMGWYRQAPGKERDLVAAITYRSGRTYYADSVKGRFTISRDNAKNTVYFQMNSLKPEDTAVYDCAAEFGGASRYTYNYWGQGTQVTVSS	low polyreactivity
QDQLVESGGGLVQAGGRLRLSCAASGSTFWWYDMGWYRKAHGKDRELVAAINWSGGSTYYADSVKGRFTISRDNAKNTVYLQMNSLKPEDTAVYYCAKVGRETEYDYWGQGTQVTVSS	high polyreactivity
QDQLVESGGGLVQAGGSHRLSCAASGRNFNYNAMGWYRQAPGKERELVAAISGSGGRTYYADSVKGRFTISRDNAKNTVYLQMNSLKPEDTAVYYCAAAGYDSNGRYWGQGTLVTVSS	high polyreactivity
QDQLVESGGGLVQAGGSHRLSCAASGSIFYRNAMGWFRQAPGKERELVAAISARGGRTNYADSVKGRFTISRDNAKNTVYLQMTSLKPEDTAVYYCNTADSWYHRSQAYDYWGQGTQVTVSS	high polyreactivity

Sequence	polyreactivity (PSR sort gate)
QDQLVESGGGLVQAGGSHRLSSAASGSILGAYAMGWYRQPPVKERELVAAISRNGGSTYYADSVKGRFTISRDNAKNTVYLQMNRLKPEDTAVYYCAAYYYDNEYDYWGQGTQVTVSS	high polyreactivity
QDQLVESGGGLVQAGGSLRFSCAPSGFTFTRNPLGCYRQAPGQEREFVARISSRGGSTYYADSVKGRYTISRDIAKNSVYLQMNSLTPEDTAVNYCARDPVGTNSARYNYWGQGTQVTVSS	high polyreactivity
QDQLVESGGGLVQAGGSLRFSCASSGRIFRSYGMGWYRQAPGKERELVARIRNRGGSTYAHSVKGRFTISRDNAKNSVYLQMNSLKPEDTAVYYCAAGAYRHSVFSYDYWGQGTQVTVSS	high polyreactivity
QDQLVESGGGLVQAGGSLRLICAASGITFFGYVMGWYRQAPGKERELVAAINSRGGNTYYADSVKGRFTSSRDNAKNTVYLQMNSLKPEDTAVYYCAASNGYQAVTYDYWGQGTQVTVSS	high polyreactivity
QDQLVESGGGLVQAGGSLRLRCAASGSILWYYAMGWYRQAPGKERELVASISYSGGSTYYADSVKGRFTISRDNAKNTVYLQMNSLKPEDTAVYYCNADTITYQGYDYGYWGQGTQVTVSS	low polyreactivity
QDQLVESGGGLVQAGGSLRLSCAASAFIFSSNAMGWYRQAPGKEREFVAAISFRGGTTYYADSVKGRFTISRDNAKNTVYLQMNSLKPEDTAVYYCNAVRWRSGRWWWYDYWGQGTQVTVSS	low polyreactivity
QDQLVESGGGLVQAGGSLRLSCAASALIFSLNAMGWYRQAPGTERELVAAISSDDSTYYADSVKGRFTISRDNAKNTVYLQMNSLKPEDTAVYYCAAVQLVPGYVDSNDYYWGQGTQVTVSS	low polyreactivity
QDQLVESGGGLVQAGGSLRLSCAASGFIFENYTLGWYRLAPGKERELVAAITSSGGSTYYADSVKGRFTISRDNAKNTVYLPLNSLNPDVTAVYYCNKRWFRDYDYWGQGTQVTVSS	high polyreactivity
QDQLVESGGGLVQAGGSLRLSCAASGFIFGRYAMGWYRQAPGKERELVATISRCGGSTYYADSVKGRFTISRDNAKKTVYLQMNSLKPEDTAVYYCAATYYQLFGTILHGYWGQGTQVTVSS	low polyreactivity
QDQLVESGGGLVQAGGSLRLSCAASGFIFLNYTMGWYRQAPGKERELVAAISNGSDRTYYADSVKGRFTISRDKAKNTVYLQMNSLTPEDTAVYYCAKDRDFSSPPTESGFDYWGQGTQVTVSS	low polyreactivity
QDQLVESGGGLVQAGGSLRLSCAASGFIFSSYAIGWYRQAPGKERELVAAITSGGSTNYADSVKGRFTLSRDNAKNTVYLQMNSLKPEDTAVYYCATVPGGSWFFHWWSTGGDDEYWGQGTQVTVSS	low polyreactivity
QDQLVESGGGLVQAGGSLRLSCAASGFIFVVYAMGWYTQAPGKERELVAAITYSGGSTYYADSVKGRFTISRDNAKNTVDLQMNSLKPEDTAVYYCAAPEHDREFDYWGQGTQVTVSS	low polyreactivity
QDQLVESGGGLVQAGGSLRLSCAASGFTFPVYAMGWYRQAPGKEWELVAAITRGGSTNYADSVKGRFTISRDNAKNTVYLQMNSLKPEDTAVYYCNADYAVAYHPDLGDYWGQGTQVTVSS	low polyreactivity
QDQLVESGGGLVQAGGSLRLSCAASGFTFRYYAMGWYRQAPGKEREFVAAITQSGGSTYYADSVKGRFTISRDNAKNTVYLQMNSLKPEDTAVYYCNTARVKYRWYNYWGQGTQVTVSS	high polyreactivity
QDQLVESGGGLVQAGGSLRLSCAASGFTFTRNAMGWYRQAPGKERELVAAISRGGSTNYADSVKGRFTISRDNAKNTVYLQMNSLKPEDTAVYYCAKVRTRGTPGVDYYYWGQGTQVTVSS	high polyreactivity
QDQLVESGGGLVQAGGSLRLSCAASGFTIDPYAMGWYRPAPGKERELVAGISWSGGSTYYADSVKGRFTISRDNAKNTVYLQMNSLKPEVTAVYYCARDYSWLTRGSDYDYWGQGTQVTVSS	low polyreactivity
QDQLVESGGGLVQAGGSLRLSCAASGFTIERYAMGWYRQAPGKERELVAVISTSGGSTYYADSVKGRFTISRDNGKNTVYLLMNSLKPEDTAVYYCAAPSVSQYSSKKYDYWGQGTQVTVSS	low polyreactivity
QDQLVESGGGLVQAGGSLRLSCAASGGIFPPNVMGWYRQAPGKERELVAAISRSGGSTYYADSVKGRFTFSRDNAMNTVYLQMNSLKPEDTAVYYCAAANTQRGFRYDYWGQGTQVTVSS	high polyreactivity
QDQLVESGGGLVQAGGSLRLSCAASGGTFGPNAMGWYRQSPGKERELVAAISASGGITYYADSVKGRFTISRDNAKNTVYLQMNSLKPEDTAVYYCAAAITWIYSQAAFKIVQYDYWGQGTQVTVSS	low polyreactivity
QDQLVESGGGLVQAGGSLRLSCAASGGTFWAYAMGWYRQAPGKERENVAAIRRSGRTYYADSVKGRITISRDNAKNTVYLQMNRLKPEDTAVDYCAKYGPTPGTLRDDYWGQGTQVTVSS	high polyreactivity
QDQLVESGGGLVQAGGSLRLSCAASGIIFHFNDMGWYRQAPGKERELVAAITSGGSTNYADSVKGRFTISRDNAKNTLYLQMNSLKPEDTAVYYCAARRGLRLFAYRHGYWGQGTQVTVSS	low polyreactivity
